{"source": "patent US6207816", "about": "“High affinity oligonucleotide ligands to growth factors” (NeXstar Pharmaceuticals, Inc.)", "key": {"KGF (hKGF) [1]": {"biological_target": "T1, KGF (hKGF) (Homo sapiens, UniProt P21781 P21781:32-194)", "T1 sequence": "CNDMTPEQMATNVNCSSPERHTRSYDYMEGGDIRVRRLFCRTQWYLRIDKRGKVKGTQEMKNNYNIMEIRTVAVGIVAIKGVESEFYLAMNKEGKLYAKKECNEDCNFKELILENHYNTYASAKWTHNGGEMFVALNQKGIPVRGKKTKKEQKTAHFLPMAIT", "assay": "filter; DPBS 37 C", "conditions": "tags: Upstate Biotechnology"}, "PDGF-AB [2]": {"biological_target": "T2, PDGF-AB (Homo sapiens, UniProt P04085;P01127 P04085:87-211,P01127:82-190)", "T2 sequence (P01127 82-190, chain 2 of 2, other chains not shown)": "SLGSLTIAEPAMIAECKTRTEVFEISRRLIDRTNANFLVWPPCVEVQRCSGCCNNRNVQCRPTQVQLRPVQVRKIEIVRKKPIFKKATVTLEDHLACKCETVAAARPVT", "assay": "filter; 20t binds within factor 2 of full length", "conditions": "tags: R&D Systems", "method": "(§1) D. Determination of the Apparent Equilibrium Dissociation Constants and the Dissociation Rate Constants The binding of ssDNA ligands at low concentrations to varying concentrations of PDGF was determined by the nitrocellulose filter binding method as described (Green et al., (1995) *Chemistry and Biology* 2: 683–695). The concentrations of PDGF stock solutions (in PBS) were determined from the absorbance readings at […] using the following $e280$ values calculated from the amino acid sequences (Gill, S. C., and von Hippel, P. H. (1989) *Anal. Biochem.* 182: 319–326): 19,500 M^-1cm^-1 for PDGF-AA, 15,700 M^-1cm^-1 for PDGF-AB and 11,800 M^-1cm^-1 for PDGF-BB. ssDNA for all binding experiments were purified by electrophoresis on 8% (>80 nucleotides) or 12% (<40 nucleotides) polyacrylamide/7 M urea gels. All ssDNA ligands were heated at 90° C. in binding buffer at high dilution ($\\approx$1 nM) for 2 min and cooled on ice prior to frier dilution into the protein solution. The binding mixtures were typically incubated for 15 min at 37° C. before partitioning on nitrocellulose filters."}, "TGF-beta1 [3]": {"biological_target": "T3, TGF-beta1 (Homo sapiens, UniProt P01137 P01137:279-390)", "T3 sequence (P01137 279-390, one chain of several)": "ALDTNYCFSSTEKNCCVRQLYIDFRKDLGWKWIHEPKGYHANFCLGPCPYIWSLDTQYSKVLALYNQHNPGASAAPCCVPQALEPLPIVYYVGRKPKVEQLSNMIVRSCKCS", "assay": "filter; boundary experiment", "conditions": "tags: Genentech; chain copies: 2"}, "TGF-beta1 [4]": {"biological_target": "T3, TGF-beta1", "assay": "cell_activity; second value 298 nM", "conditions": "tags: Genentech; chain copies: 2", "method": "(§2) Mink lung epithelial cells (MLEC) carrying the Pai1/luc construct were maintained in DME containing 10% fetal bovine serum and 400 μg/ml G418. MLEC-Pai1/luc cells were plated at 3.2×10^4 cells per well in a 96 well Falcon plate, in 100 μl of DME+10% fetal bovine serum overnight. Media was made from autoclaved water. The cells were washed three times (100 μl) in serum free DME plus Solution A (1:1). Solution A is 30 mM Hepes pH 7.6, 10 mM glucose, 3.0 mM KCl, 131 mM NaCl, 1.0 mM disodium phosphate. Samples (100 μl) were added in DME containing 20 mM Hepes pH 7.5, and 0.1% BSA (Fluka, radioimmunoassay grade). All samples were in triplicate. After six hours at 37° C. in a 5% CO_2 incubator the media was removed and cells were washed three times (100 μl each) in cold PBS. Lysis buffer (75 μl) (Analytical Luminescence Laboratory) was added and the plates incubated on ice for 20 min. The plates were sealed and frozen at −80° C. until assayed. Samples (25 μl) were assayed for luciferase activity with the Enhanced Luciferase Assay Kit from Analytical Luminescence Laboratory (San Diego, Calif., USA) according to the manufacturers instructions using the Berthold Microlumat LB96P luminometer.\n(§3) Ligands tested for inhibition of TGFβ1 activity were tested at a minimum of five concentrations. […]"}, "PDGF-BB [5]": {"biological_target": "T4, PDGF-BB (Homo sapiens, UniProt P01127 P01127:82-190)", "T4 sequence (P01127 82-190, one chain of several)": "as the sequence (P01127 82-190, chain 2 of 2, other chains not shown) above", "assay": "competition; no effect on receptor binding or mitogenesis", "conditions": "tags: R&D Systems; chain copies: 2; stem-loop"}, "PDGF-AB [6]": {"biological_target": "T2, PDGF-AB", "assay": "filter; thrombin aptamer control", "conditions": "tags: R&D Systems, E. coli; predicted stem-loop"}, "TGF-beta1 [7]": {"biological_target": "T3, TGF-beta1", "assay": "cell_activity; second value 103 nM", "conditions": "tags: Genentech; chain copies: 2", "method": "as §2, §3"}, "PDGF-AB [8]": {"biological_target": "T2, PDGF-AB", "assay": "filter; 41t binds within factor 2 of full length", "conditions": "tags: R&D Systems", "method": "as §1"}, "TGF-beta1 [9]": {"biological_target": "T3, TGF-beta1", "assay": "filter; n=3; KRH buffer 37 C; IC50 25 ± 14 nM in PAI-luciferase assay", "conditions": "tags: Genentech or R&D Systems; chain copies: 2"}, "KGF (hKGF) [10]": {"biological_target": "T1, KGF (hKGF)", "assay": "competition; PC-3 assay", "conditions": "tags: Upstate Biotechnology", "method": "PC-3 cells were plated in 24-well plates at about 10^5 cells per well. Following growth for […], the cells were serum starved for 24 hours, washed two times with 500 µl of cold DPBS, and then incubated with 500 µl binding buffer (BB1; DPBS, 0.5 mM MgCl_2, 0.2% BSA. 0.02% sodium azide) containing various concentrations of ^125I-labeled KGF ranging from 0 to 0.8 nM. Following 3–3.5 hour incubation at 4° C., the binding mixes were aspirated and the well-adhered cells were washed two times with 1 ml BB1 and once with 1 ml BB1 supplemented with 0.5M NaCl. The remaining bound labeled hKGF was solubilized in 600 µl 0.5% SDS/0.1M NaOH and counted in a gamma counter (Beckmann). Nonspecific binding was determined in the presence of 100 fold molar excess of unlabeled hKGF. For competition assays, the labeled hKGF was kept constant at 0.3 nM, and varying concentrations of competitor molecules were included in the binding reactions ranging from 0–1,000 nM. Binding curves were fitted to the equation: […]\nA subset of these ligands was tested on the NIH3T3/FGFR-2. In determining the Ki values, it was assumed that 3T3 cells have 500,000 binding sites per cell and PC-3 cells have 5,000 binding sites per cell."}, "PDGF-AA": {"biological_target": "PDGF-AA (Homo sapiens, UniProt P04085 P04085:87-211)", "assay": "filter; 37 C; comparable to random DNA", "conditions": "tags: R&D Systems, E. coli, long form A-chain; chain copies: 2; label: 5'-32P; three-way helix junction", "method": "as §1\n(§4) The fraction of ^32P 5' end-labeled DNA ligands bound to varying concentrations of PDGF was determined by the nitrocellulose filter binding method. Minimal ligands tested were 20t (○), 36t (Δ), and 41t (□). […]"}, "PDGF-BB [11]": {"biological_target": "T4, PDGF-BB", "assay": "competition; 125I-PDGF-BB binding to PDGF alpha-receptor on PAE cells", "conditions": "tags: R&D Systems; chain copies: 2; three-way junction"}, "PDGF-BB [12]": {"biological_target": "T4, PDGF-BB", "assay": "filter; 37 C, PBSM + 0.01% HSA; high affinity component", "conditions": "tags: R&D Systems, E. coli; chain copies: 2; label: 5'-32P; three-way helix junction", "method": "as §1, §4"}, "PDGF-AB [13]": {"biological_target": "T2, PDGF-AB", "assay": "filter; 37 C, PBSM + 0.01% HSA; high affinity component", "conditions": "tags: R&D Systems, E. coli; label: 5'-32P; three-way helix junction", "method": "as §1, §4"}}}
{"binder": "47N (ssRNA, 2'-NH2 pyrimidines) RNA: GGGAGGACGAUGCGGGAAGGGUAGGAAGGUCAAGAGGAAACAGCGCUUCGGGGGUGCAGACGACUCGCCCGA", "values": [{"measurement": "Kd", "setting": "KGF (hKGF) [1]", "result": 1.76, "unit": "nM"}]}
{"binder": "ligand 20 full length (ssDNA) DNA: ATCCGCCTGATTAGCGATACTATGGGAGGGCGCGTTCTTCGTGGTTACTTTTAGTCCCGACTTGAGCAAAATCACCTGCAGGGG", "values": [{"measurement": "binding result", "setting": "PDGF-AB [2]", "result": "binds"}]}
{"binder": "lib3-13-(38-123) (ssRNA) RNA: GCUUCCGAGUAGACAGGAGGGAGGGGUGGAUGUGGCGUCUACUCGGUGUCGUGAAGCUUCGCUCUAGAUCUCCCUUUAGUGAGGGU", "values": [{"measurement": "binding result", "setting": "TGF-beta1 [3]", "result": "binds"}]}
{"binder": "lib3-13-79 (ssRNA) RNA: GGGGGAGAACGCGGAUCCGAGCAAUCCCAGGCGCAUAGCUUCCGAGUAGACAGGAGGGAGGGGUGGAUGUGGCGUCUAC", "values": [{"measurement": "binding result", "setting": "TGF-beta1 [3]", "result": "binds"}]}
{"binder": "lib2-6-1-81 (ssRNA, 2'-NH2 U, 2'-F C) RNA: GGGGGAGAACGCGGAUCCUGUCUCCACCGCCGAUACUGGGGUUCCUGGGGCCCCUCCAUGCAGGAGGGGGGUGGUUCGGAG", "values": [{"measurement": "IC50", "setting": "TGF-beta1 [4]", "result": 201, "unit": "nM"}]}
{"binder": "CAGTCCGTGGTAGGGCAGGTTGGGGTGACTTCGTGGAA (ssDNA, 3'-3' inverted T)", "note": "[T39]", "values": [{"measurement": "binding result", "setting": "PDGF-BB [5]", "result": "no binding"}, {"measurement": "Kd", "setting": "PDGF-AB [6]", "result": 230, "unit": "nM"}]}
{"binder": "lib2-6-1 (ssRNA, 2'-NH2 U, 2'-F C) RNA: GGGGGAGAACGCGGAUCCUGUCUCCACCGCCGAUACUGGGGUUCCUGGGGCCCCUCCAUGCAGGAGGGGGGUGGUUCGGAGAAAGCUUCGCUCUAGAUCUCCCUUUAGUGAGGGUUA", "values": [{"measurement": "IC50", "setting": "TGF-beta1 [7]", "result": 112, "unit": "nM"}]}
{"binder": "ligand 41 full length (ssDNA) DNA: ATCCGCCTGATTAGCGATACTCAGGGCACTGCAAGCAATTGTGGTCCCAATGGGCTGAGTACTTGAGCAAAATCACCTGCAGGGG", "values": [{"measurement": "binding result", "setting": "PDGF-AB [8]", "result": "binds"}]}
{"binder": "lib3-13 (ssRNA, 2'-NH2 pyrimidines) RNA: GGGGGAGAACGCGGAUCCGAGCAAUCCCAGGCGCAUAGCUUCCGAGUAGACAGGAGGGAGGGGUGGAUGUGGCGUCUACUCGGUGUCGUGAAGCUUCGCUCUAGAUCUCCCUUUAGUGAGGGUUA", "values": [{"measurement": "Kd", "setting": "TGF-beta1 [9]", "result": 0.83, "unit": "nM"}]}
{"binder": "10F (ssRNA, 2'-F pyrimidines) RNA: GGGAGGACGAUGCGGGACCAGAUGGCGGAUUUUUCAGCAAUCCUCCCCCCGCUGCCCAGACGACUCGCCCGA", "values": [{"measurement": "Kd", "setting": "KGF (hKGF) [1]", "result": 0.47, "unit": "nM"}]}
{"binder": "10F (K10F) (ssRNA, 2'-F pyrimidines) RNA: GGGAGGACGAUGCGGGACCAGAUGGCGGAUUUUUCAGCAAUCCUCCCCCCGCUGCCCAGACGACUCGCCCGA", "values": [{"measurement": "IC50", "setting": "KGF (hKGF) [10]", "result": 30, "unit": "nM"}]}
{"binder": "4N (ssRNA, 2'-NH2 pyrimidines) RNA: GGGAGGACGAUGCGGGUGGUGAAGAGGUACCGGAAUUGCUAAAGAUACCACGGCCCAGACGACUCGCCCGA", "values": [{"measurement": "Kd", "setting": "KGF (hKGF) [1]", "result": 0.75, "unit": "nM"}]}
{"binder": "4N (K4N) (ssRNA, 2'-NH2 pyrimidines) RNA: GGGAGGACGAUGCGGGUGGUGAAGAGGUACCGGAAUUGCUAAAGAUACCACGGCCCAGACGACUCGCCCGA", "values": [{"measurement": "IC50", "setting": "KGF (hKGF) [10]", "result": 70, "unit": "nM"}]}
{"binder": "TGGGAGGGCGCGTTCTTCGTGGTTACTTTTAGTCCCG (ssDNA, 3'-3' inverted T)", "note": "[20t]", "values": [{"measurement": "Kd", "setting": "PDGF-AA", "result": 47, "unit": "nM"}, {"measurement": "IC50", "setting": "PDGF-BB [11]", "result": "~1", "unit": "nM"}, {"measurement": "Kd", "setting": "PDGF-BB [12]", "result": 0.127, "unit": "nM"}, {"measurement": "Kd", "setting": "PDGF-AB [13]", "result": 0.147, "unit": "nM"}]}
